Source: PMC3513585

Molecular target: denatured human type I collagen (gelatin) (human) (UniProt P02452)
Test: ELISA

Sequence of denatured human type I collagen (gelatin) (human) (P02452 162-1218, chain 1 of 2): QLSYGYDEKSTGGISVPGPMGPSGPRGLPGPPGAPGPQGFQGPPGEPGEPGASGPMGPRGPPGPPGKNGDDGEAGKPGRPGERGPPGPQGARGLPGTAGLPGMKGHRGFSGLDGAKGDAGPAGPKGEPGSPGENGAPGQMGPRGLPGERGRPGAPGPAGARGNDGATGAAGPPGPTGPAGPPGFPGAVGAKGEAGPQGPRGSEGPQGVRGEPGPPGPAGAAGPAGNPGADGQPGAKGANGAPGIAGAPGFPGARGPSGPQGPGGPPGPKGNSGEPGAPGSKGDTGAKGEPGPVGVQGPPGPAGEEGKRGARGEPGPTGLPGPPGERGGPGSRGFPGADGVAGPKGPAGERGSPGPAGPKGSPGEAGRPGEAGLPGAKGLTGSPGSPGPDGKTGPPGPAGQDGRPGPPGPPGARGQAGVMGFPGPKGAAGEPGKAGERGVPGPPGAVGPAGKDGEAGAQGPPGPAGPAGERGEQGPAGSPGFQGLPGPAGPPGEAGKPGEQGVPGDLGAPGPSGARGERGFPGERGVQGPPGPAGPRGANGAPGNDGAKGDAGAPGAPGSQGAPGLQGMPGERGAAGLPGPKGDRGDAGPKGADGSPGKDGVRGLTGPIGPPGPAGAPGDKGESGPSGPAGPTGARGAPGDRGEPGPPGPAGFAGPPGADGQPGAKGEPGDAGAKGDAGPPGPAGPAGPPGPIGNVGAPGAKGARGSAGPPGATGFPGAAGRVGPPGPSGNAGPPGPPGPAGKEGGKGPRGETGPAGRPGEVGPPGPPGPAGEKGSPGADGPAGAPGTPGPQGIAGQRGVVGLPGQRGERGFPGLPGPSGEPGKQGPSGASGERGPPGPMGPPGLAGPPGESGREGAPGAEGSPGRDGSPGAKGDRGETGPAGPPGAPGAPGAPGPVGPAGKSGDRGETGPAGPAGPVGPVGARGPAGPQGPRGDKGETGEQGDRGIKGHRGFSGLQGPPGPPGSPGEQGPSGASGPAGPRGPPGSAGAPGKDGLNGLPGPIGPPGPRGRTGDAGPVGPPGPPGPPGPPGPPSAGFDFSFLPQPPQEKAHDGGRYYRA
Sequence of denatured human type I collagen (gelatin) (human) (P08123 80-1119, chain 2 of 2, further chain): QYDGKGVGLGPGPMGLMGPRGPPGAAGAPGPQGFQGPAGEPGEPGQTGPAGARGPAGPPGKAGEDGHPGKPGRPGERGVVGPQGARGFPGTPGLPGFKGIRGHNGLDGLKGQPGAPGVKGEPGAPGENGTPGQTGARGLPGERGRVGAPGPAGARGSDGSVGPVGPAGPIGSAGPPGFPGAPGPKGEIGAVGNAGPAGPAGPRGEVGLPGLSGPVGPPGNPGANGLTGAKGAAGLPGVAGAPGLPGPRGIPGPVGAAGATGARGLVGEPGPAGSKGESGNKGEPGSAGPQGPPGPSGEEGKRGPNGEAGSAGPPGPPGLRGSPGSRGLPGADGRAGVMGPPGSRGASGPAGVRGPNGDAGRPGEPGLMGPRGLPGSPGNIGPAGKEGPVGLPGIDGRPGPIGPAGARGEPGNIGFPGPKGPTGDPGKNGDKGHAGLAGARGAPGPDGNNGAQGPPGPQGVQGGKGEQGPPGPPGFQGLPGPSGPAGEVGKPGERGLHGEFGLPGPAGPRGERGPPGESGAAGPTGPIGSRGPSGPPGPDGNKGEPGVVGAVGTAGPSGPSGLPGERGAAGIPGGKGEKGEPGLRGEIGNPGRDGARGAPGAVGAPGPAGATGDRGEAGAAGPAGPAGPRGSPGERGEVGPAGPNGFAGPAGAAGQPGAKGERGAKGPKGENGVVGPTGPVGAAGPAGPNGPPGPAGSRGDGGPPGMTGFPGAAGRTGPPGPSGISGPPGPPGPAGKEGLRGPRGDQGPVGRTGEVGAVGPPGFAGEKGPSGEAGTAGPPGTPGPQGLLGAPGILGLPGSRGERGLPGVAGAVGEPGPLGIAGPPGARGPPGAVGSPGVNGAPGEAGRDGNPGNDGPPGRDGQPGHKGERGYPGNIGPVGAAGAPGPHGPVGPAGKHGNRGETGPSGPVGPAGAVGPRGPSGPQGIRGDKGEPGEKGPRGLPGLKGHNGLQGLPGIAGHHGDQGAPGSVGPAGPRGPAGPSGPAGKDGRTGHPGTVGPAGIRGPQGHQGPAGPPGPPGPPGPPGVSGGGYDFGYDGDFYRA

| Kd | Substance |
| --- | --- |
| 37.6 nM | MMP-2 F297A/R368A (variant of MMP-2Δpro, CBD modules 2+3) (from UniProt P08253 30-660) (enzyme) |
| 3.56 nM | MMP-2 R368A (variant of MMP-2Δpro, CBD module 3) (from UniProt P08253 30-660) (enzyme) |
| 7.49 nM | MMP-2 R252A/R368A (variant of MMP-2Δpro, CBD modules 1+3) (from UniProt P08253 30-660) (enzyme) |
| 1.03 nM | MMP-2Δpro (constitutively active matrix metalloproteinase-2 without the prodomain; wild-type) (from UniProt P08253 30-660) (enzyme) |
| 5.84 nM | MMP-2 R252A/F297A (variant of MMP-2Δpro, CBD modules 1+2) (from UniProt P08253 30-660) (enzyme) |
| 2.8 nM | MMP-2 F297A (variant of MMP-2Δpro, CBD module 2) (from UniProt P08253 30-660) (enzyme) |
| 2.58 nM | MMP-2 R252A (variant of MMP-2Δpro, CBD module 1) (from UniProt P08253 30-660) (enzyme) |
